These results are taken from patent US20140105889A1 (published 2014).

For one assay, the target named is T1, human FcγRIIa(R) (human, UniProt P12318 36-217).
T1 construct: Analyte in solution on Biacore; also called FcγRIIa type R; FcgRIIaR
T1 chain: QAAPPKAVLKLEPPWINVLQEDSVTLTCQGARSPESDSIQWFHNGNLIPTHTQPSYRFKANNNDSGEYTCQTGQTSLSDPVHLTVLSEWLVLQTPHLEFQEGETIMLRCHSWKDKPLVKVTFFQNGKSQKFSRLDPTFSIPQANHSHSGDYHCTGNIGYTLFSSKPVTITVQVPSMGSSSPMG
Briefly: SPR (Biacore), antibody captured on chip, FcγR as analyte, HBS-EP+, 25°C.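 Note: FcγR binding response divided by the amount of captured antibody, then expressed relative to the reference antibody ×100, with antibodies captured via immobilized Protein A, A/G, L or antigen peptides.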

A further assay has as its target T2, human FcγRIIa(H) (human, UniProt P12318 36-217).
T2 construct: Analyte in solution on Biacore; also called FcγRIIa type H; FcgRIIaH
T2 sequence: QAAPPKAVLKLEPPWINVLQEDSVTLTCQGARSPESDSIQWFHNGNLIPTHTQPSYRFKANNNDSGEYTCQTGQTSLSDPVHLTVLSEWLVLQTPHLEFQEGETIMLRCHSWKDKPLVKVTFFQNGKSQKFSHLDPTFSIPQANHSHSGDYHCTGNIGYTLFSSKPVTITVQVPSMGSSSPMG
The description is as above.

The next assay concerns the target T3, human FcγRIa (human, UniProt P12314 16-292, limits assumed).
T3 construct: Analyte in solution on Biacore; also called FcgRIa; hFcgRIa
The description is as above.

The target of assay [1] is T4, human FcγRIIb (human, UniProt P31994 43-217, limits assumed).
T4 construct: Analyte in solution on Biacore; also called FcgRIIb; hFcgRIIb
T4 sequence: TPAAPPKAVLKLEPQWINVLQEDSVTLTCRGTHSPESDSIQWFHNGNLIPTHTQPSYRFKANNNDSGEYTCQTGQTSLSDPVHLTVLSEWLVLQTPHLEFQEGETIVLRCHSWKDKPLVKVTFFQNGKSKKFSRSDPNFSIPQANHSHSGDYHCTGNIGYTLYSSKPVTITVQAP
The assay is described as above.
Description: (§1) Interaction between each modified antibody and Fcγ receptor prepared in the manner described above was analyzed using the Biacore T100 (GE Healthcare), Biacore T200 (GE Healthcare), Biacore A100 or Biacore 4000. HBS-EP+ (GE Healthcare) was used for the running buffer, and measurements were carried out at 25° C. The chips used were chips in which antigen peptides, Protein A (Thermo Scientific), Protein A/G (Thermo Scientific) or Protein L (ACTIGEN or BioVision) were immobilized on the Series S Sensor Chip CM5 (GE Healthcare) or Series S Sensor Chip CM4 (GE Healthcare) by amine coupling, or chips in which preliminarily biotinylated antigen peptides were allowed to interact and then immobilized on the Series S Sensor Chip SA (certified) (GE Healthcare). The target antibodies were captured on these sensor chips, Fcγ receptor diluted with the running buffer was allowed to interact, followed by measurement of the amount of bound antibody. The amounts bound were compared between antibodies. However, since the amount of Fcγ receptor bound depends on the amount of captured antibody, the values used for comparison were first corrected by dividing the amount of Fcγ receptor bound by the captured amount of each antibody. Through reaction with 10 mM glycine-HCl at pH 1.5, the sensor chips were regenerated by washing off antibody captured on the sensor chips and used repeatedly.
(§2) Binding strength was evaluated according to the following method based on the results of analyzing the interaction with each FcγR. […] That value was then further multiplied by 100, and the resulting value was used as an indicator of relative binding activity to each FcγR.

The next assay concerns the target T5, human FcγRIIIa(F) (human, UniProt P08637 17-208, limits assumed).
T5 construct: also called FcgRIIIaF; hFcgRIIIa(F)
The assay is described as above.

Assay [2] concerns the target T6, human FcγRIIb (human, UniProt P31994 43-217, limits assumed).
T6 construct: also called FcγIIB; hFcgRIIb
T6 sequence: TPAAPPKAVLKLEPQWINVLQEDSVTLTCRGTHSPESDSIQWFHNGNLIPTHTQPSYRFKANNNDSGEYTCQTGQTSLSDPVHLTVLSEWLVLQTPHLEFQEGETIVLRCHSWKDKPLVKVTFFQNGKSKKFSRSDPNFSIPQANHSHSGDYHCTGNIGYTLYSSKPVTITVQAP
Briefly: ratio of this variant's SPR KD for FcγRIIaH to its KD for FcγRIIb.
Excerpt: Furthermore, KD(IIaR)/KD(IIb) and KD(IIaH)/KD(IIb) in the table respectively represent the value obtained by dividing the KD value of each variant for FcγRIIaR by the KD value of each variant for FcγRIIb, and the value obtained by dividing the KD value of each variant for FcγRIIaH by the KD value of each variant for FcγRIIb.

T3 sequence (P12314 16-292 limits assumed): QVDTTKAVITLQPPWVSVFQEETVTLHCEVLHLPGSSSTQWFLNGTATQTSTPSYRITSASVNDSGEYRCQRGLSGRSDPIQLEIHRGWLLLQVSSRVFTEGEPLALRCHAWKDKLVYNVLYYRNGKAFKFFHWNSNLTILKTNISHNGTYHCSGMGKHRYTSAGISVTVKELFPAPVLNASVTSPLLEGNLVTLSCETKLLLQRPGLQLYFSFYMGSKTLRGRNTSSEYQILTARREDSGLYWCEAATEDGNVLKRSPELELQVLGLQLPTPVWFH
T5 sequence (P08637 other isoform, or with tags, fused parts or gaps limits assumed): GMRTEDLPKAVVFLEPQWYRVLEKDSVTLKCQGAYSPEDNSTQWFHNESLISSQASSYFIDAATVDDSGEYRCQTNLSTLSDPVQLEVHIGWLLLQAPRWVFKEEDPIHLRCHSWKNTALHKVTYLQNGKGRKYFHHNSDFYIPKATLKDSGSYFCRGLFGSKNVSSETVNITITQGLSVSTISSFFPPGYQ
Description for human FcγRIIIa(F): as §1, §2
Description for human FcγRIIa(H): as §1, §2
Description for human FcγRIIa(R): as §1, §2
Description for human FcγRIa: as §1, §2

B1: GpH7-B3 variant P329S / GpL16-k0 (antibody, human IgG1)
heavy: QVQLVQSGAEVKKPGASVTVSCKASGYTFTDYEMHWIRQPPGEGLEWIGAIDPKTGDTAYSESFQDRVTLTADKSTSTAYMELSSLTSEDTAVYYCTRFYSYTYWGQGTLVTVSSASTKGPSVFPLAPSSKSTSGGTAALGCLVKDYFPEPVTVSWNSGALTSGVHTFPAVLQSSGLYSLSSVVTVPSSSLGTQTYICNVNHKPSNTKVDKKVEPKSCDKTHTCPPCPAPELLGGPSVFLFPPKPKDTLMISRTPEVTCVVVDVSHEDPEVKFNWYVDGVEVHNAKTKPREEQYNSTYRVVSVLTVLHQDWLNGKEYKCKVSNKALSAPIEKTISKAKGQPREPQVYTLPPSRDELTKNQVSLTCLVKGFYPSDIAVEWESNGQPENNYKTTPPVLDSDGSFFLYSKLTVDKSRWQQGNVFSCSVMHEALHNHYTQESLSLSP
light: DIVMTQSPLSLPVTPGEPASISCQASESLVHSNRNTYLHWYLQKPGQSPQLLIYKVSNRFSGVPDRFSGSGSGTDFTLKISRVEAEDVGVYYCSQNTHVPPTFGQGTKVEIE
notes: Anti-glypican-3 IgG1; constant region B3 = G1d with K439E
In the case of B1, the “relative binding activity (% of GpH7-B3/GpL16-k0)” value with human FcγRIIa(R) is 0%; with human FcγRIIa(H), 1%; in the assay with human FcγRIa, 60%; with human FcγRIIb [1], -1%; in the assay with human FcγRIIIa(F), 1%.

B2: GpH7-B3 variant P329E / GpL16-k0 (antibody, human IgG1)
heavy: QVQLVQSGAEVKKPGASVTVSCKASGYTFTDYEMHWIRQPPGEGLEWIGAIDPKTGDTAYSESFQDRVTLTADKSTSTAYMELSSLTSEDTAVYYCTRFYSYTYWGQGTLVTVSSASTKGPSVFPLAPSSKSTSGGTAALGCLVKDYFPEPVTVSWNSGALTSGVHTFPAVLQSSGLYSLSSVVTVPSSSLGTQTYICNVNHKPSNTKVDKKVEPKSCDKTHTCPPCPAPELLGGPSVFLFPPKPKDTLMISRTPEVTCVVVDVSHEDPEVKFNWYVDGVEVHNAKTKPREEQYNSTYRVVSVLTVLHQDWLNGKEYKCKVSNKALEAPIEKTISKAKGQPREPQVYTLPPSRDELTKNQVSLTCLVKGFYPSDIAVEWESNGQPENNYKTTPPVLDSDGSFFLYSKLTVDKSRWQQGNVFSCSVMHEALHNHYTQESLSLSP
light: DIVMTQSPLSLPVTPGEPASISCQASESLVHSNRNTYLHWYLQKPGQSPQLLIYKVSNRFSGVPDRFSGSGSGTDFTLKISRVEAEDVGVYYCSQNTHVPPTFGQGTKVEIE
notes: as for B1
Take B2: the “relative binding activity (% of GpH7-B3/GpL16-k0)” value in the assay with human FcγRIIa(R) was -1%; with human FcγRIIa(H), 0%; in the assay with human FcγRIa it was 33%; with human FcγRIIb [1], -2%; with human FcγRIIIa(F), -1%.

B3: GpH7-B3 variant A330S / GpL16-k0 (antibody, human IgG1)
heavy: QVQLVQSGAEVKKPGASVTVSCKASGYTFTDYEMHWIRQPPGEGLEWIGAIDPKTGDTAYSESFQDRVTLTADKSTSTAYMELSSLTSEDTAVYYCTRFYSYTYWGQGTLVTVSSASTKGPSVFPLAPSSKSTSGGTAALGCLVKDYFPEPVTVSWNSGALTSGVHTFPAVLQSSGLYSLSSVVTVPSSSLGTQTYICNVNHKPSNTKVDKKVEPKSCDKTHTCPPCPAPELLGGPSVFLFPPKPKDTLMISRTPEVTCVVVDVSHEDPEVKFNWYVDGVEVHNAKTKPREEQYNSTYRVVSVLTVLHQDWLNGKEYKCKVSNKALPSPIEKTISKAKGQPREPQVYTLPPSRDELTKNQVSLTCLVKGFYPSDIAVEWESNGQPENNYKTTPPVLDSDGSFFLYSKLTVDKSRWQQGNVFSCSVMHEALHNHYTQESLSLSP
light: DIVMTQSPLSLPVTPGEPASISCQASESLVHSNRNTYLHWYLQKPGQSPQLLIYKVSNRFSGVPDRFSGSGSGTDFTLKISRVEAEDVGVYYCSQNTHVPPTFGQGTKVEIE
notes: as for B1
B3: the “relative binding activity (% of GpH7-B3/GpL16-k0)” value in the assay with human FcγRIIa(R) was 0%; with human FcγRIIa(H), 0%; with human FcγRIa, 58%; with human FcγRIIb [1], -3%; in the assay with human FcγRIIIa(F), 0%.

B4: GpH7-B3 variant P329W / GpL16-k0 (antibody, human IgG1)
heavy: not shown
light: DIVMTQSPLSLPVTPGEPASISCQASESLVHSNRNTYLHWYLQKPGQSPQLLIYKVSNRFSGVPDRFSGSGSGTDFTLKISRVEAEDVGVYYCSQNTHVPPTFGQGTKVEIE
notes: as for B1
Consider B4, for which the “relative binding activity (% of GpH7-B3/GpL16-k0)” value was 1% in the assay with human FcγRIIa(R); 0% in the assay with human FcγRIIa(H); 94% in the assay with human FcγRIa; 0% with human FcγRIIb [1]; 0% with human FcγRIIIa(F).

B5: GpH7-B3 variant P329Y / GpL16-k0 (antibody, human IgG1)
heavy: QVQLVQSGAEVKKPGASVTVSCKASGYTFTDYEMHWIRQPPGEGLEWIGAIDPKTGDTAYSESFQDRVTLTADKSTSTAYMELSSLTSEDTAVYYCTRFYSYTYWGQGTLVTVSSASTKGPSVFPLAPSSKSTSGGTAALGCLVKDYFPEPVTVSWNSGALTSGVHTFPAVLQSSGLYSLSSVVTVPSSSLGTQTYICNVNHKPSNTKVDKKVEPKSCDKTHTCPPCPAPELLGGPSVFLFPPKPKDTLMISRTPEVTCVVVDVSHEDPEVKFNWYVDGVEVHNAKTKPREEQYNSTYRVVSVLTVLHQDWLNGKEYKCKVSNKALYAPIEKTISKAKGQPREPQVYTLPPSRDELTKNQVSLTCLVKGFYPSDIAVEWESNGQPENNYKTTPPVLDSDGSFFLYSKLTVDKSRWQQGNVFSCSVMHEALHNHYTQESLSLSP
light: DIVMTQSPLSLPVTPGEPASISCQASESLVHSNRNTYLHWYLQKPGQSPQLLIYKVSNRFSGVPDRFSGSGSGTDFTLKISRVEAEDVGVYYCSQNTHVPPTFGQGTKVEIE
notes: as for B1
Take B5: the “relative binding activity (% of GpH7-B3/GpL16-k0)” value with human FcγRIIa(R) was -1%; in the assay with human FcγRIIa(H), 0%; in the assay with human FcγRIa, 76%; with human FcγRIIb [1], -3%; with human FcγRIIIa(F), 0%.

B6: GpH7-B3 variant P331R / GpL16-k0 (antibody, human IgG1)
heavy: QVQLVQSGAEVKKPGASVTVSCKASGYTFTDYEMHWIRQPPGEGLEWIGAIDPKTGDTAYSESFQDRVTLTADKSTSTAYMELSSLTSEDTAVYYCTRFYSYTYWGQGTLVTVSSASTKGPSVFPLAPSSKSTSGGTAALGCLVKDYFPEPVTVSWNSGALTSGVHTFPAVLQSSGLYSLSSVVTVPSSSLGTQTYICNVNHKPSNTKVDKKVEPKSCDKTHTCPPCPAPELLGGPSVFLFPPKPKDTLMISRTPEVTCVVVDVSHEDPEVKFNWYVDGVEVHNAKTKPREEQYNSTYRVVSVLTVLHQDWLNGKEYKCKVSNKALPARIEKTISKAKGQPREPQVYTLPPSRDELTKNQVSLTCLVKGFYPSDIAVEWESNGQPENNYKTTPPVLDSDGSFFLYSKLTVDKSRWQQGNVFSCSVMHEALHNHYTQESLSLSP
light: DIVMTQSPLSLPVTPGEPASISCQASESLVHSNRNTYLHWYLQKPGQSPQLLIYKVSNRFSGVPDRFSGSGSGTDFTLKISRVEAEDVGVYYCSQNTHVPPTFGQGTKVEIE
notes: as for B1
For B6, the “relative binding activity (% of GpH7-B3/GpL16-k0)” value was found to be 64% in the assay with human FcγRIIa(R); 59% with human FcγRIIa(H); 95% with human FcγRIa; 55% with human FcγRIIb [1]; 38% with human FcγRIIIa(F).

B7: GpH7-B3 variant I332R / GpL16-k0 (antibody, human IgG1)
heavy: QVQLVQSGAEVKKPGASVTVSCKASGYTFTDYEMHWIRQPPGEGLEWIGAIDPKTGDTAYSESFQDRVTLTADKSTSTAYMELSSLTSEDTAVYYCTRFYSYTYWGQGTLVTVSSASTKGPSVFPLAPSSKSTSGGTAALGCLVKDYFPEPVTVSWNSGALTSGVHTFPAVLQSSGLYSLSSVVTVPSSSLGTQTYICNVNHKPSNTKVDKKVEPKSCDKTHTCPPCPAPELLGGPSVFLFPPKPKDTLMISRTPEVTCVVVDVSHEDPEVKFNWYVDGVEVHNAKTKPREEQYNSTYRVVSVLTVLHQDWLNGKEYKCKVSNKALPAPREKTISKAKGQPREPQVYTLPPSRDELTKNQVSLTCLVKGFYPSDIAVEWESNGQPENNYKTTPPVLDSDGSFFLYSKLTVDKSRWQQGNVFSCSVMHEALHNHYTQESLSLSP
light: DIVMTQSPLSLPVTPGEPASISCQASESLVHSNRNTYLHWYLQKPGQSPQLLIYKVSNRFSGVPDRFSGSGSGTDFTLKISRVEAEDVGVYYCSQNTHVPPTFGQGTKVEIE
notes: as for B1
Consider B7, for which the “relative binding activity (% of GpH7-B3/GpL16-k0)” value with human FcγRIIa(R) was 28%; with human FcγRIIa(H) it was 70%; with human FcγRIa, 95%; with human FcγRIIb [1], 23%; in the assay with human FcγRIIIa(F), 61%.

B8: GpH7-B3 variant P329G / GpL16-k0 (antibody, human IgG1)
heavy: not shown
light: DIVMTQSPLSLPVTPGEPASISCQASESLVHSNRNTYLHWYLQKPGQSPQLLIYKVSNRFSGVPDRFSGSGSGTDFTLKISRVEAEDVGVYYCSQNTHVPPTFGQGTKVEIE
notes: as for B1
In the case of B8, the “relative binding activity (% of GpH7-B3/GpL16-k0)” value stood at 1% in the assay with human FcγRIIa(R); 1% with human FcγRIIa(H); 92% with human FcγRIa; 0% with human FcγRIIb [1]; 4% with human FcγRIIIa(F).

B9: GpH7-B3 variant A330P / GpL16-k0 (antibody, human IgG1)
heavy: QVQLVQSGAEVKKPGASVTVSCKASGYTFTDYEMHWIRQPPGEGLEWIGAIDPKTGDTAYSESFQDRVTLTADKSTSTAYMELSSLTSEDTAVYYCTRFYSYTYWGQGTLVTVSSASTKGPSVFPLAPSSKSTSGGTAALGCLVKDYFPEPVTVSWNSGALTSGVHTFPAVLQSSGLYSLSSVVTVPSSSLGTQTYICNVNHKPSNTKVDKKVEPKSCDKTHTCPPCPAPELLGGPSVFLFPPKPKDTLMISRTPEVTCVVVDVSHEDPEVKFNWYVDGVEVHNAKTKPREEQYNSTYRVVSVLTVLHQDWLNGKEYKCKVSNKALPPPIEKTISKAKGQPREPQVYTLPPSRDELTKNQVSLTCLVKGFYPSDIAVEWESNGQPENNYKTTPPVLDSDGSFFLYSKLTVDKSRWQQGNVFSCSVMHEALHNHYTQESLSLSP
light: DIVMTQSPLSLPVTPGEPASISCQASESLVHSNRNTYLHWYLQKPGQSPQLLIYKVSNRFSGVPDRFSGSGSGTDFTLKISRVEAEDVGVYYCSQNTHVPPTFGQGTKVEIE
notes: as for B1
Regarding B9, the “relative binding activity (% of GpH7-B3/GpL16-k0)” value in the assay with human FcγRIIa(R) was determined as 42%; with human FcγRIIa(H), 25%; with human FcγRIa, 87%; in the assay with human FcγRIIb [1] it was 39%; in the assay with human FcγRIIIa(F), 56%.

B10: GpH7-B3 variant P329D / GpL16-k0 (antibody, human IgG1)
heavy: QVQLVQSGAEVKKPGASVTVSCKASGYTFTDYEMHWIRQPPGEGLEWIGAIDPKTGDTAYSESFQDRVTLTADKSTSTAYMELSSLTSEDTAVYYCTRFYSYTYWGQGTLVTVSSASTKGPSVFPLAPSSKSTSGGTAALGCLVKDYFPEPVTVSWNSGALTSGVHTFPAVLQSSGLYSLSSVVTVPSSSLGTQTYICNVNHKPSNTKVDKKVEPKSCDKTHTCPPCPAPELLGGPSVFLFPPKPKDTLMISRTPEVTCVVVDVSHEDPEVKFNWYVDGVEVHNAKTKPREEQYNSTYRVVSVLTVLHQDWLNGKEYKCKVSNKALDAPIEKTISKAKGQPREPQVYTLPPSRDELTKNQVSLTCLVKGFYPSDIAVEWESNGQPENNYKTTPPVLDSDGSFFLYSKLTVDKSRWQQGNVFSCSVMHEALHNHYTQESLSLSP
light: DIVMTQSPLSLPVTPGEPASISCQASESLVHSNRNTYLHWYLQKPGQSPQLLIYKVSNRFSGVPDRFSGSGSGTDFTLKISRVEAEDVGVYYCSQNTHVPPTFGQGTKVEIE
notes: as for B1
With B10, the “relative binding activity (% of GpH7-B3/GpL16-k0)” value in the assay with human FcγRIIa(R) is -1%; with human FcγRIIa(H), -1%; with human FcγRIa, 23%; with human FcγRIIb [1], -2%; in the assay with human FcγRIIIa(F) it was -1%.

B11: GpH7-B3 variant I332P / GpL16-k0 (antibody, human IgG1)
heavy: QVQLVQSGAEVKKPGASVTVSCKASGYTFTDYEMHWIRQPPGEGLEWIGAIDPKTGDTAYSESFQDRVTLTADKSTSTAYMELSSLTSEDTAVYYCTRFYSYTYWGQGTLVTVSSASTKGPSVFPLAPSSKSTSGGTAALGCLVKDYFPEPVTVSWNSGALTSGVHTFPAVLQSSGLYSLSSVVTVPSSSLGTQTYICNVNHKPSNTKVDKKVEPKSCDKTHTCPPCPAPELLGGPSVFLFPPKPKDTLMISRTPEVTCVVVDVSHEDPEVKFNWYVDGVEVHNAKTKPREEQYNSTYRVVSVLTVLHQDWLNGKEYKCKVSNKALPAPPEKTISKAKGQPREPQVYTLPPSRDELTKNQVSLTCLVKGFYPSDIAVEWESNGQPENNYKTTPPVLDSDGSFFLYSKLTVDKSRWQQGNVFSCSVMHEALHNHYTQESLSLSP
light: DIVMTQSPLSLPVTPGEPASISCQASESLVHSNRNTYLHWYLQKPGQSPQLLIYKVSNRFSGVPDRFSGSGSGTDFTLKISRVEAEDVGVYYCSQNTHVPPTFGQGTKVEIE
notes: as for B1
Regarding B11, the “relative binding activity (% of GpH7-B3/GpL16-k0)” value was 34% with human FcγRIIa(R); 26% with human FcγRIIa(H); 100% with human FcγRIa; 41% with human FcγRIIb [1]; 14% in the assay with human FcγRIIIa(F).

B12: GpH7-B3 variant I332K / GpL16-k0 (antibody, human IgG1)
heavy: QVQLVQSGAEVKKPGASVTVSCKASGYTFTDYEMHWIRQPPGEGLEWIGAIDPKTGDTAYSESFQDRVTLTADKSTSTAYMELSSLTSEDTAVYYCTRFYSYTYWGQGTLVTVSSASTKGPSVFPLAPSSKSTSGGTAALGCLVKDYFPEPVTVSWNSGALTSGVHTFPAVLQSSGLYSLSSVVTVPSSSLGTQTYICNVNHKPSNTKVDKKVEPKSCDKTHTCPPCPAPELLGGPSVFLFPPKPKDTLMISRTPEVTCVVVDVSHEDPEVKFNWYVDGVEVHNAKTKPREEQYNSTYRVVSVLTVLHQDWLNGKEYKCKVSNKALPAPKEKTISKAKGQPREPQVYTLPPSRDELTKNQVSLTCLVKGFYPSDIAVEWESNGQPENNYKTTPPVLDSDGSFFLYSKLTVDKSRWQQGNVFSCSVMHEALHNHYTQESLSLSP
light: DIVMTQSPLSLPVTPGEPASISCQASESLVHSNRNTYLHWYLQKPGQSPQLLIYKVSNRFSGVPDRFSGSGSGTDFTLKISRVEAEDVGVYYCSQNTHVPPTFGQGTKVEIE
notes: as for B1
Regarding B12, the “relative binding activity (% of GpH7-B3/GpL16-k0)” value in the assay with human FcγRIIa(R) was found to be 12%; with human FcγRIIa(H) it was 59%; with human FcγRIa, 77%; in the assay with human FcγRIIb [1], 27%.

B13: GpH7-B3 variant P331K / GpL16-k0 (antibody, human IgG1)
heavy: not shown
light: DIVMTQSPLSLPVTPGEPASISCQASESLVHSNRNTYLHWYLQKPGQSPQLLIYKVSNRFSGVPDRFSGSGSGTDFTLKISRVEAEDVGVYYCSQNTHVPPTFGQGTKVEIE
notes: as for B1
Regarding B13, the “relative binding activity (% of GpH7-B3/GpL16-k0)” value came out at 72% with human FcγRIIa(R); 58% with human FcγRIIa(H); 98% with human FcγRIa; 63% with human FcγRIIb [1]; 34% with human FcγRIIIa(F).

B14: IL6R-BP087/IL6R-L (antibody, human IgG1)
heavy: QVQLQESGPGLVKPSETLSLTCAVSGHSISHDHAWSWVRQPPGEGLEWIGFISYSGITNYNPSLQGRVTISRDNSKNTLYLQMNSLRAEDTAVYYCARSLARTTAMDYWGEGTLVTVSSASTKGPSVFPLAPSSKSTSGGTAALGCLVKDYFPEPVTVSWNSGALTSGVHTFPAVLQSSGLYSLSSVVTVPSSSLGTQTYICNVNHKPSNTKVDKKVEPKSCDKTHTCPPCPAPEYLGGDSVFLFPPKPKDTLMISRTPEVTCVVVDVSHEDPEVKFNWYVDGVEVHNAKTKPREEQYNSTYRVVSVLTVLHQDWLNGKEYKCKVSNKALPKPIEKTISKAKGQPREPQVYTLPPSRDELTKNQVSLTCLVKGFYPSDIAVEWESNGQPENNYKTTPPVLDSDGSFFLYSKLTVDKSRWQQGNVFSCSVMHEALHNHYTQESLSLSP
light: DIQMTQSPSSLSASVGDRVTITCRASQDISSYLNWYQQKPGKAPKLLIYYTSRLHSGVPSRFSGSGSGTDFTFTISSLQPEDIATYYCQQGNTLPYTFGQGTKVEIK
notes: copies: 2 + 2
Turning to B14, in the assay with human FcγRIIb [2], the “KD (IIaH)/KD (IIb)” value amounted to 34.7.
